Source: publication PMC5567992

How the values were obtained:
[1] = target: CNTNW^N149L (Neisseria wadsworthii); assay: crystal structure
[2] = target: CNTNW^N149S,F366A (Neisseria wadsworthii); assay: crystal structure
[3] = target: CNTNW^N149L, SeMet labelled (Neisseria wadsworthii); assay: crystal structure
[4] = target: MBP-CNTNW^T243C,C364S,K388C (outward-facing cross-linking mutant) (Neisseria wadsworthii); assay: cross-linking
[5] = target: concentrative nucleoside transporter from Neisseria wadsworthii (CNTNW), wild type (Neisseria wadsworthii); assay: crystal structure
[6] = target: MBP-CNTNW^T243C,C364S,A373C (inward-facing cross-linking mutant) (Neisseria wadsworthii); assay: cross-linking
[7] = target: CNTNW^N149S,E332A (Neisseria wadsworthii); assay: crystal structure

CNTNW^N149L (natural protein)
stoichiometry N [1]: 3

CNTNW^N149S,F366A (natural protein)
stoichiometry N [2]: 3

CNTNW^N149L, SeMet labelled (natural protein)
stoichiometry N [3]: 3

MBP-CNTNW^T243C,C364S,K388C (outward-facing cross-linking mutant) (natural protein)
stoichiometry N [4]: 3

concentrative nucleoside transporter from Neisseria wadsworthii (CNTNW), wild type (natural protein)
stoichiometry N [5]: 3

MBP-CNTNW^T243C,C364S,A373C (inward-facing cross-linking mutant) (natural protein)
stoichiometry N [6]: 3

CNTNW^N149S,E332A (natural protein)
stoichiometry N [7]: 3
